Assay results from PMC6566870.
Like-named read-outs stand apart in the source and are kept apart here.

Tests used:
[1] = target: N-terminally His6-tagged cMyc-tagged human CCR1 (human) (UniProt P32246)
[2] = target: N-terminally His6-tagged cMyc-tagged human CCR1 (human) (UniProt P32246); remark: listed apart in the source
[3] = target: N-terminally His6-tagged cMyc-tagged human CCR1 (human) (UniProt P32246); assay: radioligand binding; competitive displacement of 50 pM 125I-CCL3 from membranes of Flp-In T-REx 293 cells expressing CCR1; 2 h at 37 °C; two sets of experiments (Table 1, Table 3)
[4] = target: N-terminally His6-tagged cMyc-tagged human CCR1 (human) (UniProt P32246); remark: listed apart in the source
[5] = target: N-terminally His6-tagged cMyc-tagged human CCR1 (human) (UniProt P32246); assay: radioligand binding; competitive displacement of 50 pM 125I-CCL3 from membranes of Flp-In T-REx 293 cells expressing CCR1; 2 h at 37 °C; two sets of experiments (Table 1, Table 3); remark: listed apart in the source
[6] = target: N-terminally His6-tagged cMyc-tagged human CCR1 (human) (UniProt P32246); remark: listed apart in the source

Chain of N-terminally His6-tagged cMyc-tagged human CCR1 (human) (P32246 whole entry): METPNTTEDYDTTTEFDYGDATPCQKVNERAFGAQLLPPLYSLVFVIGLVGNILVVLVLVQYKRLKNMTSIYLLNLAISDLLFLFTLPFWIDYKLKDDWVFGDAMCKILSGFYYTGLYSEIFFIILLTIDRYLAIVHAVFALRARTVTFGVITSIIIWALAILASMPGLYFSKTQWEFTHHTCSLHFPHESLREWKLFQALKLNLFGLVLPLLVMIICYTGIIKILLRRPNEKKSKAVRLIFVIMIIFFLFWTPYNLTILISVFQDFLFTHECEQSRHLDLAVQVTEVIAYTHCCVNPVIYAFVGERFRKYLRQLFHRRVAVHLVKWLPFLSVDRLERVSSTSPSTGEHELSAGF

transduction coefficient Log(τ/KA), GPA αi1 [1]	transduction coefficient Log(τ/KA), GPA αi2 [1]	transduction coefficient Log(τ/KA), cAMP [1]	transduction coefficient Log(τ/KA), pERK [1]	ERK1/2 phosphorylation, EC50 [2] [nM]	ERK1/2 phosphorylation, Emax [2] [%]	ERK1/2 phosphorylation, pEC50 [2]	Gαi1 activation (BRET), EC50 [2] [nM]	Gαi1 activation (BRET), Emax [2] [%]	Gαi1 activation (BRET), pEC50 [2]	Gαi2 activation (BRET), EC50 [2] [nM]	Gαi2 activation (BRET), Emax [2] [%]	Gαi2 activation (BRET), pEC50 [2]	inhibition of forskolin-induced cAMP production, EC50 [2] [nM]	inhibition of forskolin-induced cAMP production, Emax [2] [%]	inhibition of forskolin-induced cAMP production, pEC50 [2]	IC50 [3] [nM]	pIC50 [3]	Substance	also measured
8.4	8.6	8.9	8.6	2.1	28.3	8.7 -log M	2.3	86.2	8.6 -log M	1.3	140	8.9 -log M	0.4	35.7	9.4 -log M	0.074	10.1 -log M	CCL15(Δ28) (ligand)	–
9	8.5	9.1	8.8	1.3	28.2	8.9 -log M	0.7	91.2	9.2 -log M	1.5	124	8.8 -log M	0.2	35.5	9.7 -log M	0.54	9.3 -log M	CCL15(N-CCL7) (ligand)	–
–	8.3	–	–	–	–	–	–	–	–	1.2	114	8.9 -log M	–	–	–	0.028	10.6 -log M	CCL15(Δ26) (ligand)	transduction coefficient Log(τ/KA), GPA αi1 (second set of experiments) [1]: 8.7; transduction coefficient Log(τ/KA), cAMP (second set of experiments) [1]: 8.4; transduction coefficient Log(τ/KA), pERK (second set of experiments) [1]: 8.7; inhibition of forskolin-induced cAMP production, EC50 (Table 3) [2]: 2.7 nM; transduction coefficient Log(τ/KA), GPA αi1 [4]: 8.6; transduction coefficient Log(τ/KA), cAMP [4]: 8.1; transduction coefficient Log(τ/KA), pERK [4]: 8.4; IC50 [5]: 0.093 nM; pIC50 [5]: 10.1 -log M; ERK1/2 phosphorylation, EC50 [6]: 2.3 nM; ERK1/2 phosphorylation, Emax [6]: 25.4%; ERK1/2 phosphorylation, pEC50 [6]: 8.6 -log M; G protein activation (Gαi1, BRET), EC50 [6]: 1 nM; G protein activation (Gαi1, BRET), Emax [6]: 111%; G protein activation (Gαi1, BRET), pEC50 [6]: 9 -log M; inhibition of forskolin-induced cAMP production, EC50 [6]: 2.8 nM; inhibition of forskolin-induced cAMP production, Emax [6]: 28.7%; inhibition of forskolin-induced cAMP production, pEC50 [6]: 8.6 -log M
